Test results reported in article PMC9337824.

Legend:
[1] = target: Ligelizumab; assay: SPR; IgG Fc antibodies covalently coupled to the sensor chip captured the anti-IgE mAbs (ligelizumab: Creative Biolabs, TAB755); Expi293-expressed human full-length IgE injected at 0.312–50 nM
[2] = target: Omalizumab; assay: as above
[3] = target: CD23 on SKW6.4 B lymphoma cells (human (endogenous in SKW6.4)) (UniProt P06734); assay: flow cytometry on cells; Alexa Fluor 647-conjugated UB-221, ligelizumab (UBP lot) or omalizumab at 0 to 10 μg/mL mixed with an equal volume of 15 μg/mL human IgE in PBS, 1 hour at room temperature; added to CD23^+ SKW6.4 cells for 30 minutes at 4°C
[4] = target: CD23-bound IgE on SKW6.4 cells (human | human (endogenous in SKW6.4)) (UniProt P01854); assay: flow cytometry on cells; CD23^+ SKW6.4 cells with 15 μg/mL human IgE for 30 minutes at 4°C, washed, then UB-221, ligelizumab (UBP lot) or omalizumab at 0–10 μg/mL in PBS for 30 minutes at 4°C; Brilliant Violet 421 anti-human IgG Fc
[5] = target: IgE in sera of patients with atopic dermatitis (human (endogenous in patients' sera)); assay: ELISA; sera of AD patients with low basal IgE (<4,800 ng/mL, n = 9) incubated 1 hour at room temperature with mAb at 0–4,000 ng/mL (ligelizumab: Creative Biolabs TAB-755); remaining free IgE measured on plates coated with FcεRIα-Fcγ
[6] = target: IgE in sera of patients with atopic dermatitis (human (endogenous in patients' sera)); assay: ELISA; sera of AD patients with high basal IgE (>24,000 ng/mL, n = 10) incubated 1 hour at room temperature with mAb at 0–75,000 ng/mL; remaining free IgE measured on plates coated with FcεRIα-Fcγ

Chain of UniProt P06734 (P06734 whole entry): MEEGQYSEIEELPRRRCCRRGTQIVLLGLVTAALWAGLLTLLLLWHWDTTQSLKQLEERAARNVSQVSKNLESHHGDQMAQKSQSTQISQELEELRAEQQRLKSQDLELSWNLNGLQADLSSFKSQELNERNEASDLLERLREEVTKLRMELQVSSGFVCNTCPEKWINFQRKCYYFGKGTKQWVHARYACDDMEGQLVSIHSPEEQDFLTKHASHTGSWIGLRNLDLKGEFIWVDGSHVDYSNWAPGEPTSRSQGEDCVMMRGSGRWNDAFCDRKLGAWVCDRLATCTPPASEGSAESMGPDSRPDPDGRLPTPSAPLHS
Chain of IgE in sera of patients with atopic dermatitis (human (endogenous in patients' sera)) (P01854 whole entry): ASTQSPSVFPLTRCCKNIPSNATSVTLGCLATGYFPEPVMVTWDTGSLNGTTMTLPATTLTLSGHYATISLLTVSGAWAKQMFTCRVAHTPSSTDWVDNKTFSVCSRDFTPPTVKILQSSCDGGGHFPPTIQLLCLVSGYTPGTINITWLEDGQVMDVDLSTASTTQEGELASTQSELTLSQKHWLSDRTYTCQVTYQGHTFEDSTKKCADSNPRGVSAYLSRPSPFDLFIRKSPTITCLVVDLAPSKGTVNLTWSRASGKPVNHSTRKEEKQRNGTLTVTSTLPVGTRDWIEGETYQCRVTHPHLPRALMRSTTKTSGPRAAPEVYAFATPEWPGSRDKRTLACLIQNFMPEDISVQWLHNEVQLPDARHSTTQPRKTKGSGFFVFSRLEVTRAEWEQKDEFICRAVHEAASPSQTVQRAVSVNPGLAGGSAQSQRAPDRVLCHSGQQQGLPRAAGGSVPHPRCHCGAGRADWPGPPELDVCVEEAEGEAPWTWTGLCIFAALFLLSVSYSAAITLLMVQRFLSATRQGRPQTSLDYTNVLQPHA

Expi293-expressed human full-length IgE (from UniProt P01854 1-546) (natural protein)
Kd [1]: 0.016 nM
Kd [2]: 0.23 nM

Preformed UB-221–IgE complex (from UniProt P01854 1-546)
maximum binding MFI [3]: 1280 MFI

Preformed ligelizumab-IgE complex (from UniProt P01854 1-546)
maximum binding MFI [3]: 191 MFI

B1: Ligelizumab (antibody, V domains shown)
VH: QVQLVQSGAEVMKPGSSVKVSCKASGYTFSWYWLEWVRQAPGHGLEWMGEIDPGTFTTNYNEKFKARVTFTADTSTSTAYMELSSLRSEDTAVYYCARFSHFSGSNYDYFDYWGQGTLVTVSS
VL: EIVMTQSPATLSVSPGERATLSCRASQSIGTNIHWYQQKPGQAPRLLIYYASESISGIPARFSGSGSGTEFTLTISSLQSEDFAVYYCQQSWSWPTTFGGGTKVEIK
maximum binding MFI [4]: 503 MFI
EC90 [5]: 1 µg/mL
EC90 [6]: > 25 µg/mL
